Data on 41 sequences can be found in the nanobody polyreactivity screen of Harvey et al. (2022).

This data set can be described thus: yeast display, Sf9 membrane polyspecificity reagent, FACS + sequencing; frameworks hold sequencing errors. An outline of the steps: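 A nanobody's polyreactivity label depends on the gate it was sorted from. Yeast display cells were stained with 10% biotinylated, detergent-solubilized Sf9 membrane reagent for 1 hour at 4 °C, enriched on streptavidin microbeads and sorted by FACS. The low and high (top ~1%) gates were set on anti-HA fluorescence for expression and streptavidin fluorescence for reagent binding.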
As to “QVQLVESGGGLVQAGGSLRLTCAASGITFLHYAMGWYRQAPGKERELVATISRRGGSTYYADSVKGRFTNSRDNAKYTVYLQLNSLKPEDTAVYYCAADSYYLRHYSAGYYFKRYYWGQGTQVTVSS”, the “polyreactivity (PSR sort gate)” value was “high polyreactivity”.

Regarding “QVQLVESGAGLVQAGGSLRLSCAASGRTFSAYAMGWYRQAPGKERELVAAITLSVGSTYYADSVKGRFTISRDNAKTTVYLQMNSLKPEDTAVYYCNKYKKGEGGITIVRFDYWGQGTQVTVSS”, the “polyreactivity (PSR sort gate)” value is on record as “low polyreactivity”.

Turning to “QVQLVESGGGLVQAGGRLRLSCAASGSIFLFYAMGWYRKAPVKERELVARITSSGGTTYYADSVKGRFTISRDNAKNTVYLQMNSLKPEDTAVYYCAASYFIYHYDFDYWGQGTQVTVSS”, the “polyreactivity (PSR sort gate)” value is on record as “high polyreactivity”.

For “QVQLVESGGGLDQAGGSLRLSCAASGRIIRFYAMAWYRQAPGKERELVAAISSRGGSTYYADSVKGRFTISRDNAKNTVYLQKNSLKPEDTAVYYCAKKTWRDYAYNYWGQGTQVTVSS”, the “polyreactivity (PSR sort gate)” value is “high polyreactivity”.

As for “QVQLVESGGGLVQAGGSLRLSCAASGSTFSQNAMGWYRQAPGKERELVAAITSGGITYYADSVKGRFTISRDNAKNTVYLQMNSLKPEDTAVYYCAADFWPSGRGVAFDYWGQGTQVTVSS”, the “polyreactivity (PSR sort gate)” value is listed as “low polyreactivity”.

Turning to “QVQLVESGGGLVQAGGSLRLSCAASGTIYDGYAMGWYRQAPGKERELVAAINTSGGTTYYADSENGRFTISRDKAKNNGYLQMNSLKPEETAVYYCNAHNHLPPYDYWGQGSQVTVSS”, the “polyreactivity (PSR sort gate)” value was “low polyreactivity”.

With “QVQLVESGGGLVQAGGTLRLSCAASGRTFSGYAMGWYRQAPGKERELVAAIDRGDGTNYADSVKGRFTISRDNAKNTVYLQMNSLKPEDTAVYYCAADYSYGSTSHTYTGFDYWGQGTQVTVSS”, the “polyreactivity (PSR sort gate)” value was “low polyreactivity”.

For “QVQLVESGGVLVQDGGSLRLSCAASGRIFGHYAMGWYRQAPGKERELVAAISWSGGSTYYADSVKARFTISRDNAKNTVYLQMKSLKPEDTAVYDCNTGRVRYQGVRYDYWGQGTQVTVSS”, the “polyreactivity (PSR sort gate)” value was “high polyreactivity”.

Consider “QVQLVESGGGLVQAGGSLRLSCAASGLILVPNTMGWYRQAPGKESELVAAISDSGGGTYYADSVKGRFTISRDNAKNTVYLQMISLKPEDTAVYYCAAYGKRESAPYGYWGQGTQVTVSS”, for which the “polyreactivity (PSR sort gate)” value is given as “low polyreactivity”.

With “QVQLVESGGGLVQAGGSLRLSCAASGPTFYKYAMGWYRQAPGKERELVATITRRGGSTYYADSVKGRFTISRDNAKNTVYLQMNSLKPEDTAVYYCAKEIFLKGPDGHDYWGQGTQVTVSS”, the “polyreactivity (PSR sort gate)” value is on record as “low polyreactivity”.

On to “QVQLVESGGGLVQAGGSLRLSCAASGRIFRYYAMGWYRQAPGKEREFVAGISWRGSSTYYADSVKGRFTISRDNAKNTVYLQMNSLKPEDTAVYYCNRDQSNIPVTGGRFYYWGQGTQVTVSS”, for which the “polyreactivity (PSR sort gate)” value is listed as “high polyreactivity”.

For the sequence “QVQLVESGGGLVQAGGSLRLSCAATGIKFDGYAMGWYRQEPRKERELVAGITIGDITYYADSVKGRFTISRDNAKNTVYLQMNSLKPEDTAVYYCADDCYYYQTAYDYWGQGTQVTVSS”, the “polyreactivity (PSR sort gate)” value is “low polyreactivity”.

On to “QVQLQESGGGLVKAGGSLRLSCAASGSIFYWPWMGWYRQAPGREREFVATITTGSNTYYADSMKGHLTISRDNARNTVYLQMNSLKPEDTAVYYCAVVGDGELEHRYWGQGTQVTVSS”, for which the “polyreactivity (PSR sort gate)” value is listed as “high polyreactivity”.

With “QVQLVESGGGLGQAGGSLLLSCAASGRIFWCNAMGWTRQAPGKERELVAAIRWSGGSTYYADSVKGRFTISRDNAKNTVYLQMNSLKPEDTAVYYCAASPYWSDWTKVDSWGQGTQVTVSS”, the “polyreactivity (PSR sort gate)” value is “low polyreactivity”.

With “QVQLVESGGGLVQAGGSLRLSCAASGFTFSSNAMGWFRQAPGKERELVAAISFSGTRTYYADSVKGRFTISRDNAKKTVYLQMNSLKPEDTAVYYCAAGRHYGPLSGRTKGMEYWGQGTQVTVSS”, the “polyreactivity (PSR sort gate)” value is “high polyreactivity”.

“QVQLVESGGGLVQAGGRLRFSCAASGSTFVNNAMGWYRQAPGKERELVAAISRRGGRTYYADSEKGRFTISRDNAKNTVYLQMKSLKPEDTAVYYCAADESRYDYWGQGTQVTVSS”: the “polyreactivity (PSR sort gate)” value was “high polyreactivity”.

Turning to “QVQLVESGGGLVQAGRSLRLSCAASGRTFGANAMGWYRQAPGKERELVAAISYHGTRTYYADSVKGRFTISRDNAKNTVYLQMNSLKPEDTAVYYCAAVGKPGVYQEGDYWGQGTQVTVSS”, the “polyreactivity (PSR sort gate)” value was “high polyreactivity”.

Regarding “QVQLVESGGGLVQAGGSLRLSCAASGNIFSTYAMGWYRQAPGKERELVAAISKSGGRTYYADSVKGRFTISRDNAKNTVYLQMNSLKPEDTAVYYCNKRYQHGISFGYGYWGQGTQVTVSS”, the “polyreactivity (PSR sort gate)” value is on record as “high polyreactivity”.

Consider “QVQLVESGGGLVQAGGSLRLSCAASGSTFSSYVMGWDRQAPGKERELVAAISSIGGSTYYADSVKGRFTISRDNAKNTVYLQMNSQKPEDTAVYYCPAEPPGSTYEGGYWGQGTQVTVSS”, for which the “polyreactivity (PSR sort gate)” value was “low polyreactivity”.

As to “QVQLVESGGGLVQAGGSLRLSCAASGSTFATYAMGWYRQAPGKERELVAVISRSGGSTYYADSVKGRFTISRDNAKNTVYLQMNSLKPEDTAVYYCNVPITPGRVKYDYWGQGTQVTVSS”, the “polyreactivity (PSR sort gate)” value was “high polyreactivity”.

As for “QVQLVESGGGLVQAGGSLRLRFAASGSIFVRNALGWYRQAPGKERELVAAITYSGSRTYSADSVKGRFTISRDNAKNTVYLQMNSLKPEETAVYYCAKVRVLVDKWSTFYEYYYWGQGTQVTVSS”, the “polyreactivity (PSR sort gate)” value is on record as “low polyreactivity”.

With “QVQLVESGGGLVQAGGSLRLSCAASGRIYGGNAKGWYRQAPGKEREFVAAITWRGGTTYYADSVKGRFTISRDNAKNTVYLQMNSLKPEDTAVYYCNALRYTRNTGYDYWGQGTQVTVSS”, the “polyreactivity (PSR sort gate)” value was “high polyreactivity”.

For “QVQLVESGGGLVQAGGSLRLSCASSGRILYLNAMGWYRQAPGKERELVAAITLRAGSTRYADSVKGRFTISRDNAKNTVYLQMNSLKPEDTAVYYCAVAYYRNRMDYWVQGTQVTVSS”, the “polyreactivity (PSR sort gate)” value is on record as “high polyreactivity”.

With “QVQLVESGGGLVQAGGSLRLSCAASGRTFVPYAMGWYRQAPGKERELVATITSAGSTYYADSVKGRFTISRDNAKNTVYLQMNSLKPEDTAVYYCNARYYSRRWPYDYWGQGTQVTVSS”, the “polyreactivity (PSR sort gate)” value is listed as “high polyreactivity”.

For the sequence “QVQLVESGGGLVQAGGSLRLSCAASGFTFGVYAKGWYRQEPGKEREMVAAISSRRGSTYYADSVKGRFTISRDNAKNTVYLQMNSLKPEDTAVYYCAKRLGNTVGKEDYWGQGTQVTVTS”, the “polyreactivity (PSR sort gate)” value is on record as “low polyreactivity”.

Turning to “QVQLVESGGGLVQAGGSLRLSCAASGRTFIYNVMGWYRQAPGKERELVASIRSSGGSTYYADSVKGRFTISRDNAKNTVYLQMNSLKPEDTAVYYCAADRSPGIRGWPGDYWGQGTQVTVSS”, the “polyreactivity (PSR sort gate)” value was “low polyreactivity”.

As to “QVQLVESGGGLVQAGGSLRLSCAASGFTFYYYAMGWYRQAPGKERELVAAINGGSSTNYADSVKGRFTISRDNAKNTVYLQMNSLKPDDTAVYYCAAETRFYRNIDKIYFVLDRVDYWGQGTQVTVSS”, the “polyreactivity (PSR sort gate)” value is reported as “low polyreactivity”.

“QVQLVESGGGLVQAGGSLRLSCAASGSIFAQYAMGWYRQAPGKERELVATISSVGSTNYADSVKGRFTISRDNAKNTVYLQMNSLKPEDTAVYYCNAVRSGWGYFYGLNYWGQGTQVTVSS”: the “polyreactivity (PSR sort gate)” value is recorded as “low polyreactivity”.

For “QVQLVESGGGLVQAGGSLRLSCAASGFIFRTYAMGWYRQAPGKERELDATITGDGSTNYADSVKGRFTISRDNAKKTVYLQMNSLKPEDTAVYYGSRDVRLSGDYWGQGTQVTVSS”, the “polyreactivity (PSR sort gate)” value was “low polyreactivity”.

Regarding “QVQLVEAGGGLVQAGGTLRLSCAASGSNFSENTMGWYRPAPGKKRELVADITSGGSTNYADSVKGRFTISRDNAKNTVYLQMNSMKAEVTAVYYCAADYNGEYDYWGQGSQVTVSS”, the “polyreactivity (PSR sort gate)” value is listed as “low polyreactivity”.

As to “QVQLLESGGGLVQAGGSLRISCAASGIFDPNAMGWYIQAPGKERELVAAITSGGSTNYADSVKGRFTISRDNAKNTFYLQMNSLKPEDTAVYYCNEDYDRPDFYFWVQGTQVTVSS”, the “polyreactivity (PSR sort gate)” value was “low polyreactivity”.

Regarding “QVQLVESGGCLVQAGGSLRLSCAASGSIFDYNAMGWYRQAPGKEREFVAAISSSAGSTYYADSVKGRFTISRDNAKNTVYLQMNSLKPEDTAVYDCAADWYDFSFPYYEYEYWGQGTQVTVSS”, the “polyreactivity (PSR sort gate)” value is given as “low polyreactivity”.

As for “QVQLVESCGGLVQAGGSLRLSCAASGSIFPFNAMGWYRQAPGKQRELVAAITRSGGSTYYADSVKGRITISRYIAKNSVYLQMNSLKPQDTAVYYCATDPEWPLPAYYYWGQGTQVTVSS”, the “polyreactivity (PSR sort gate)” value was “low polyreactivity”.

On to “QVQLVESGGGLVQAGGSLRLSCAASGSTFYAYAMGWYRQAPGKERELVAAISSDGSTNYADSVKGRFTISRDNAKNTVYLQMNSLKPEDTAVYYCAADDNGAWVRMDYWGQGTQVTVSS”, for which the “polyreactivity (PSR sort gate)” value is recorded as “low polyreactivity”.

Take “QVQLVESGGGLVQAGGSLRLSCAASGSIDWNAMGWYRQAPGKEREFVAAISSSGGRTSYADSVKGRFTISRDNAKNTVYLQMNSLKPEDTAVYYCAAAGSYDGDRYYYWGQGTQVTVSS”: the “polyreactivity (PSR sort gate)” value is recorded as “high polyreactivity”.

“QVQLVESGGGLVQAGGSLRLSCAASGSIFGYNAMGWYRQAPGKERELDAAISISDGSTYYADSVKGRFTISRDNAKNTVYFQMNSLKPEDTAVYYCAAPRDLSGYGNFGNGPFYYWGQGTQVTVSS”: the “polyreactivity (PSR sort gate)” value is given as “low polyreactivity”.

In the case of “QVQLVESGGGLVQAGGSLRLSCAASGFIFYSNAMGWYSQAPGKVRELVAAISRGGGSTYYADSVKGRFTISRDNAKNTVYLQMNSLKPEDTAVYYCAKRRLSPQDDYWGQGTQVTLSS”, the “polyreactivity (PSR sort gate)” value is reported as “high polyreactivity”.

Take “QFQLVESGGGLVQAGGSLRLTCAASVSTFSSYVMGWYRQAPGKDRELVAAISSIGGSTYYADSVKGRFTISRDNAKTNDYLQMNSLKPEDTAVYYCAAEPPGSTYEGGYWGQGTQVTVSS”: the “polyreactivity (PSR sort gate)” value is “low polyreactivity”.

With “QVQLVESGGGLVQAGGSLRLSCAASGRIFGRNARGWYRQAPGKERELVAAISSSGGTYYADSVKGRFTISRYNAKNTVYLQMNSLKPEDTAVYYCNARVRTQQRWVDYWGLGTQVTVSS”, the “polyreactivity (PSR sort gate)” value is on record as “high polyreactivity”.

Take “QVQLVESGGGLVQAGGSLRLSCAASGSNVAVYVMGWYRQAPGKERELVAAISISAARTYYADSVKGRFTISRDNAKNTVYLQMNSLKPEDTAVYYGAARLVFRNDSWGQGTQVTVSS”: the “polyreactivity (PSR sort gate)” value was “high polyreactivity”.

In the case of “QVQLVESGGGLVHAGGILRLSCAASGRTFPYYAMGWYRQAPGKERELVAAISSSGGGTYYADSVKGRFTISRDTAKNTVYLQMNSLKPEDTAVYYCNAVSYYQDSFYYWGQGTQVTVSS”, the “polyreactivity (PSR sort gate)” value is on record as “high polyreactivity”.
